According to US20090074762A1:

Molecular target: T1, TweakR on cells (TweakR-expressing cells, TweakR transfectant cell line, A375 melanoma cells, tumor tissue) (human) (UniProt Q9NP84)
T1 sequence: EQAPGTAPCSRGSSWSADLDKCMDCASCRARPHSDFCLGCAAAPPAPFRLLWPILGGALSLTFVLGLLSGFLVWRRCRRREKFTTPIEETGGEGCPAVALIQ
Assay: cell-based or functional assay

## anti-TweakR antibody ITEM2
  agonist activity (IL-8 release assay): 28%
